From publication PMC9896449

Columns and labels:
[1] = target: ShAb01H02K (knob-in-hole heterodimer of ShAb01-Fc and ShAb02-Fc) (nurse shark (Ginglymostoma cirratum)); experiment: BLI
[2] = target: BiShAb0201 (ShAb02 VNAR - (GGGGS)5 - ShAb01 VNAR - human IgG1 Fc) (nurse shark (Ginglymostoma cirratum)); experiment: BLI

| Substance | Kd [1] [nM] | koff [1] [s⁻¹] | kon [1] [M⁻¹ s⁻¹] | Kd [2] [nM] | koff [2] [s⁻¹] | kon [2] [M⁻¹ s⁻¹] |
| --- | --- | --- | --- | --- | --- | --- |
| SARS-CoV-2 RBD B.1.1.529, Omicron BA.1 (from UniProt P0DTC2 331-527) (domain or fragment) | 24.5 | 0.00175 | 71300 | 15.1 | 0.00154 | 102000 |
| SARS-CoV-2 RBD Omicron BA.4/5 (from UniProt P0DTC2 331-527) (domain or fragment) | 5.6 | 0.000692 | 123000 | 14.9 | 0.000767 | 51500 |
| SARS-CoV-2 RBD B.1.1.529.2.12.1, Omicron BA.2.12.1 (from UniProt P0DTC2 331-527) (domain or fragment) | 17.4 | 0.00171 | 98500 | 46.9 | 0.000922 | 19700 |
| SARS-CoV-2 RBD B.1.1.529.2, Omicron BA.2 (from UniProt P0DTC2 331-527) (domain or fragment) | 24.1 | 0.00186 | 77000 | 33.2 | 0.000749 | 22600 |
